The text below walks through data of patent publication US8394641B2, “Method of hydrolyzing an enzymatic substrate” (Advanced Liquid Logic Inc., priority 2009, dated 2013).

One data set deals with T1, acid β-D-glucosidase (Homo sapiens, UniProt P04062).
T1 sequence (P04062 40-536): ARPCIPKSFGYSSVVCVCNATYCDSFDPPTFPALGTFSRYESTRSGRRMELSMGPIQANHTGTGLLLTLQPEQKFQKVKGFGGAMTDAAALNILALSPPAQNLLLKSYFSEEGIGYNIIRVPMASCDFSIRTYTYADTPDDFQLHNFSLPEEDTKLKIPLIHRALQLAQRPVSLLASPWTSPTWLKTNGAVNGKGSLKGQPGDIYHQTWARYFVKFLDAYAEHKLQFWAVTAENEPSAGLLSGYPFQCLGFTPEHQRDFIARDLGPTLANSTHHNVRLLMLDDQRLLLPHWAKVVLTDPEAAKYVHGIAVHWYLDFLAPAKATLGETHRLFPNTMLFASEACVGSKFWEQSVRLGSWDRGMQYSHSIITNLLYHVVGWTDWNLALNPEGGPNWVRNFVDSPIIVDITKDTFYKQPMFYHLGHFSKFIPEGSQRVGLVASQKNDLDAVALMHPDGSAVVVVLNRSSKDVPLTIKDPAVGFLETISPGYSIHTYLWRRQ
Kind of data set: Droplet-based enzymatic assay for acid β-D-glucosidase (Gaucher), comparison of substrates. In kind it is biochemical. The conditions noted are these: droplet actuator, Gaucher's disease testing. An excerpt:
The invention provides assay methods for detection of Gaucher and Niemann-Pick diseases on a droplet actuator. Gaucher's disease and Niemann-Pick's disease are caused by deficient activity of the lysosomal enzymes acid β-D-glucosidase and acid sphingomyelinase, respectively. In one embodiment, the invention provides methods for a droplet-based enzymatic assay for acid β-D-glucosidase activity. For example, a multifluoroethylumbelliferyl-β-D-glucoside, such as a 4-pentafluoroethylumbelliferyl-β-D-glucoside, may be used as a substrate fluid in a droplet-based enzymatic assay for acid β-D-glucosidase enzyme activity. The increased number of fluorines makes the substrate fluid more labile to hydrolysis. The excitation/emission wavelengths for 4-pentafluoroethylumbelliferyl-β-D-glucoside are 385/495 nm.

For data set [1], the target named is iduronate-2-sulfate sulphatase (IDS) (Homo sapiens, UniProt P22304). The conditions noted are these: cited from earlier work.
iduronate-2-sulfate sulphatase (IDS), sequence (P22304 34-550): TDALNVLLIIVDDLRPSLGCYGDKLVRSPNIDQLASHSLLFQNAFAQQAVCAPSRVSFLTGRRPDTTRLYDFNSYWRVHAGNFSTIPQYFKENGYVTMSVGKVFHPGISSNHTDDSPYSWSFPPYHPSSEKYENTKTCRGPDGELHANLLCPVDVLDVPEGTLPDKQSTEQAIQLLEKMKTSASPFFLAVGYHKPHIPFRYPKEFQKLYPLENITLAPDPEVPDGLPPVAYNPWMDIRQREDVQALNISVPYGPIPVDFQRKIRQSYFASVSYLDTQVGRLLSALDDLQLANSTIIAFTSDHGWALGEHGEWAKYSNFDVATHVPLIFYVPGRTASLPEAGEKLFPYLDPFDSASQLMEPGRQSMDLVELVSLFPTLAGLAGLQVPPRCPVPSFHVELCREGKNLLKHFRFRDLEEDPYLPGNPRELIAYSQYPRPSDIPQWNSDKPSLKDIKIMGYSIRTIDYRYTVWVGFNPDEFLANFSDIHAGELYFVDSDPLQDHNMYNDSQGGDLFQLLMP
Data set [2] can be described thus: Recombinant iduronidase standard curve in the presence of BSA on a droplet actuator. Conditions: after stop buffer, room temperature. In kind it is biochemical. The method, then: Serial dilutions of recombinant iduronidase were prepared in 0.05 M Na-Acetate/0.05 M Acetic acid buffer, pH 5.0 from a stock of 0.5 mg/mL recombinant iduronidase containing 1 mg/mL molecular biology grade bovine serum albumin (BSA). A substrate fluid was prepared in 0.05 M Na Acetate, pH 5.0 containing 1 mM 4-methylumbelliferyl-α-L-idopyranosiduronic acid (4-MUI) and 100 μM D-saccharic acid 1,4-lactone.
The digital microfluidic protocol for the iduronidase standard curve included the following steps: • 1. Mix one 1× droplet of iduronidase and one 1× droplet of substrate fluid to yield a 2× reaction droplet; • 2. Split the 2× reaction droplet into two 1× reaction droplets; • 3. Dispense 11 droplets of stop buffer (sodium carbonate pH 10.1, 0.01% Tween® 20) and combine them with the first set of 1× reaction droplets; • 4. Detect end point fluorescence at 365 nm (t=0); • 5. Incubate the second set of 1× reaction droplets for 1 h at room temperature; • 6. After 1 h of incubation, dispense 11 droplets of stop buffer and combine with the reaction droplets; and • 7. Detect end point fluorescence at 365 nm (t=1 h).

The nature of data set [3]: Modified Hunter's assay (IDS) on a droplet actuator, recombinant iduronidase as second enzyme. Format: biochemical, human.
Description: Reagent solutions were prepared on-bench, and the experiment was performed on a droplet actuator using a digital microfluidic protocol. Different dilutions (1/10×, 1/4×, 1/3×, 1/2× and 1×) of plasma samples from normal (n=1) and affected (n=1) subjects were prepared using molecular grade water. A blank sample was prepared using 1 μg/mL of recombinant iduronidase in 0.05 M Na-Acetate/0.05 M Acetic acid buffer pH 5.0. A working stock of 10 μg/mL recombinant iduronidase in 0.05 M Na-Acetate/0.05 M Acetic acid buffer pH 5.0 was prepared from a stock of 0.5 mg/mL iduronidase (supplied in 0.05 M Na-Acetate with 150 mM NaCl, 0.02% Brij-35 (w/v) pH 3.5). A working stock of 1.25 mM MU-αIdoA-S substrate fluid was prepared in 0.1 M Na-Acetate, 0.1M Acetic Acid buffer pH 5.0 containing 10 mM Pb-Acetate. A substrate fluid was prepared by mixing 1 μL of 10 μg/mL recombinant iduronidase and 9 μL of 1.25 mM MU-αIdoA-S.
In one example, the digital microfluidic protocol for testing plasma sample dilutions included the following steps: • 1. […] Detect fluorescence at 364 nm (t=0 h); • 7. […] Detect fluorescence at 364 nm (t=8 h).
Eight different normal plasma samples were analyzed using two concentrations of recombinant iduronidase (i.e., 1 μg/mL and 10 μg/mL) in the modified Hunter's assay. […]
For data set [4] the following is noted: stock solution; cited from earlier work.

Read-outs that look alike come from different tables or passages of the source.

As for `O=c1cc(C(F)(F)C(F)(F)F)c2ccc(O[C@@H]3O[C@H](CO)[C@@H](O)[C@H](O)[C@H]3O)cc2o1` [4-pentafluoroethylumbelliferyl-β-D-glucoside], at acid β-D-glucosidase, the “enzymatic activity compared with the 4-methylumbelliferyl-β-D-glucoside substrate fluid” value is “as much as eight-fold greater”.
For `Cl` [chloride], the IDS activity inhibited in data set [1] (30 mM chloride) is 50%; in data set [1] (250 mM chloride) it was “completely inhibited”.

B1: recombinant iduronidase: Recombinant α-L-Iduronidase from R&D Systems, second enzyme of the Hunter's assay (protein, UniProt P35475 28-653, looked up)
Alpha-L-iduronidase: APHLVHVDAARALWPLRRFWRSTGFCPPLPHSQADQYVLSWDQQLNLAYVGAVPHRGIKQVRTHWLLELVTTRGSTGRGLSYNFTHLDGYLDLLRENQLLPGFELMGSASGHFTDFEDKQQVFEWKDLVSSLARRYIGRYGLAHVSKWNFETWNEPDHHDFDNVSMTMQGFLNYYDACSEGLRAASPALRLGGPGDSFHTPPRSPLSWGLLRHCHDGTNFFTGEAGVRLDYISLHRKGARSSISILEQEKVVAQQIRQLFPKFADTPIYNDEADPLVGWSLPQPWRADVTYAAMVVKVIAQHQNLLLANTTSAFPYALLSNDNAFLSYHPHPFAQRTLTARFQVNNTRPPHVQLLRKPVLTAMGLLALLDEEQLWAEVSQAGTVLDSNHTVGVLASAHRPQGPADAWRAAVLIYASDDTRAHPNRSVAVTLRLRGVPPGPGLVYVTRYLDNGLCSPDGEWRRLGRPVFPTAEQFRRMRAAEDPVAAAPRPLPAGGRLTLRPALRLPSLLLVHVCARPEKPPGQVTRLRALPLTQGQLVLVWSDEHVGSKCLWTYEIQFSQDGKAYTPVSRKPSTFNLFVFSPDTGAVSGSYRVRALDYWARPGPFSDPVPYLEVPVPRGPPSPGNP
For the molecule B1, the “Relative fluorescence at t = 1 hrs incubation (Rfu)” value in data set [2] (Idu 0.001 μg/mL) was 34.6948 Rfu; in data set [2] (Idu 0.01 μg/mL) it was 179.1927 Rfu; in data set [2] (Idu 0.1 μg/mL), 999.3997 Rfu; in data set [2] (Idu 1 μg/mL), 7427.665 Rfu. In data set [3] (1 μg/mL vs 10 μg/mL, eight normal plasma samples), the “concentration dependence of Hunter's assay activity” value is reported as “higher activity at 10 μg/mL”. Further, in data set [3] (1 μg/ml, data not shown), the “liberation of 4-MU from 4-methylumbelliferyl-α-L-iduronic acid in the IDS assay” value is given as “sufficient”. Further, the “specific activity of stock enzyme” value in data set [4] was above 7.5 nmol/min/µg.
